From patent publication US20030119102A1

Target: T1, rat Kv4.2 α-subunit (rat) (UniProt Q63881)
T1 sequence (looked up): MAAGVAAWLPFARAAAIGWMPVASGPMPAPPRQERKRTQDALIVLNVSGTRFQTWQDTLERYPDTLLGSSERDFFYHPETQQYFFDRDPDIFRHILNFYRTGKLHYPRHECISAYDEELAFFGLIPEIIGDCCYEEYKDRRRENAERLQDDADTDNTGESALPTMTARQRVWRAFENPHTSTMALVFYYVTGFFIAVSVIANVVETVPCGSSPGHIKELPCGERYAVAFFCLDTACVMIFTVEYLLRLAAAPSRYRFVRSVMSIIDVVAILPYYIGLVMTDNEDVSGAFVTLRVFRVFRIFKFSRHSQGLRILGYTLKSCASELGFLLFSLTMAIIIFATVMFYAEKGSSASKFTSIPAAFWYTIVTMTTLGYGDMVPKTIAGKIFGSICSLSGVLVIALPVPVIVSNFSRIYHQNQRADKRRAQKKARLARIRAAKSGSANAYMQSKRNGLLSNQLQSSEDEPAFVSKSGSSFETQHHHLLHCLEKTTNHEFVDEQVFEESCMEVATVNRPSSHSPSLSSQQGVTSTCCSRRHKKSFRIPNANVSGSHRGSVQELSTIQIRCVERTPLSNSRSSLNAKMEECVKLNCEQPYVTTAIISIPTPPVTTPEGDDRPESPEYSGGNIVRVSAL
Assay: cell-based or functional assay

B1: KChIP2 (9ql) (protein, UniProt Q9NS61 1-270, looked up, species assumed)
A-type potassium channel modulatory protein KCNIP2: MRGQGRKESLSDSRDLDGSYDQLTGHPPGPTKKALKQRFLKLLPCCGPQALPSVSETLAAPASLRPHRPRLLDPDSVDDEFELSTVCHRPEGLEQLQEQTKFTRKELQVLYRGFKNECPSGIVNEENFKQIYSQFFPQGDSSTYATFLFNAFDTNHDGSVSFEDFVAGLSVILRGTVDDRLNWAFNLYDLNKDGCITKEEMLDIMKSIYDMMGKYTYPALREEAPREHVESFFQKMDRNKDGVVTIEEFIESCQKDENIMRSMQLFDNVI
Inactivation time constant (ms, at 50 mV), CHO cells (rKv4.2 + vector: 28.2): 95.1 ms
Peak Current (nA/cell at 50 mV), CHO cells, patch clamp (rKv4.2 + vector: 0.60): 3.3 nA/cell
Peak Current Density (pA/pF at 50 mV), CHO cells (rKv4.2 + vector: 25.5): 197 pA/pF
Recovery from Inactivation Time constant, CHO cells (rKv4.2 + vector: 272.2): 49.5 ms

B2: KChIP3 (p19) (protein, UniProt Q9Y2W7 1-256, looked up, species assumed)
Calsenilin: MQPAKEVTKASDGSLLGDLGHTPLSKKEGIKWQRPRLSRQALMRCCLVKWILSSTAPQGSDSSDSELELSTVRHQPEGLDQLQAQTKFTKKELQSLYRGFKNECPTGLVDEDTFKLIYAQFFPQGDATTYAHFLFNAFDADGNGAIHFEDFVVGLSILLRGTVHEKLKWAFNLYDINKDGYITKEEMLAIMKSIYDMMGRHTYPILREDAPAEHVERFFEKMDRNQDGVVTIEEFLEACQKDENIMSSMQLFENVI
Inactivation time constant (ms, at 50 mV), CHO cells (rKv4.2 + vector: 28.2): 67.2 ms
Peak Current (nA/cell at 50 mV), CHO cells, patch clamp (rKv4.2 + vector: 0.60): 3.5 nA/cell
Peak Current Density (pA/pF at 50 mV), CHO cells (rKv4.2 + vector: 25.5): 162 pA/pF
Recovery from Inactivation Time constant, CHO cells (rKv4.2 + vector: 272.2): 126 ms
